Measurements reported in patent US20100029702A1, “Method For Identification of Compound Having Anti-Anxiety Effect” (priority 2006, published 2010).

Legend:
[1] = target: T1, protein encoded by ph01207 (Homo sapiens, UniProt O60241, DEL308-362); assay: Changes in intracellular Ca2+ concentration in HA-ph01207#10-6 cell strain (CHO-K1 stably expressing ph01207); assay type: cell-based; details: peptide at final concentration 1 nM
T1 construct: expressed in transfected cells; host or cells: CHO-K1 (HA-ph01207#10-6, FERM BP-10101), T8HA-attR/pCINeo
T1 sequence (O60241 with tags, fused parts or gaps DEL308-362): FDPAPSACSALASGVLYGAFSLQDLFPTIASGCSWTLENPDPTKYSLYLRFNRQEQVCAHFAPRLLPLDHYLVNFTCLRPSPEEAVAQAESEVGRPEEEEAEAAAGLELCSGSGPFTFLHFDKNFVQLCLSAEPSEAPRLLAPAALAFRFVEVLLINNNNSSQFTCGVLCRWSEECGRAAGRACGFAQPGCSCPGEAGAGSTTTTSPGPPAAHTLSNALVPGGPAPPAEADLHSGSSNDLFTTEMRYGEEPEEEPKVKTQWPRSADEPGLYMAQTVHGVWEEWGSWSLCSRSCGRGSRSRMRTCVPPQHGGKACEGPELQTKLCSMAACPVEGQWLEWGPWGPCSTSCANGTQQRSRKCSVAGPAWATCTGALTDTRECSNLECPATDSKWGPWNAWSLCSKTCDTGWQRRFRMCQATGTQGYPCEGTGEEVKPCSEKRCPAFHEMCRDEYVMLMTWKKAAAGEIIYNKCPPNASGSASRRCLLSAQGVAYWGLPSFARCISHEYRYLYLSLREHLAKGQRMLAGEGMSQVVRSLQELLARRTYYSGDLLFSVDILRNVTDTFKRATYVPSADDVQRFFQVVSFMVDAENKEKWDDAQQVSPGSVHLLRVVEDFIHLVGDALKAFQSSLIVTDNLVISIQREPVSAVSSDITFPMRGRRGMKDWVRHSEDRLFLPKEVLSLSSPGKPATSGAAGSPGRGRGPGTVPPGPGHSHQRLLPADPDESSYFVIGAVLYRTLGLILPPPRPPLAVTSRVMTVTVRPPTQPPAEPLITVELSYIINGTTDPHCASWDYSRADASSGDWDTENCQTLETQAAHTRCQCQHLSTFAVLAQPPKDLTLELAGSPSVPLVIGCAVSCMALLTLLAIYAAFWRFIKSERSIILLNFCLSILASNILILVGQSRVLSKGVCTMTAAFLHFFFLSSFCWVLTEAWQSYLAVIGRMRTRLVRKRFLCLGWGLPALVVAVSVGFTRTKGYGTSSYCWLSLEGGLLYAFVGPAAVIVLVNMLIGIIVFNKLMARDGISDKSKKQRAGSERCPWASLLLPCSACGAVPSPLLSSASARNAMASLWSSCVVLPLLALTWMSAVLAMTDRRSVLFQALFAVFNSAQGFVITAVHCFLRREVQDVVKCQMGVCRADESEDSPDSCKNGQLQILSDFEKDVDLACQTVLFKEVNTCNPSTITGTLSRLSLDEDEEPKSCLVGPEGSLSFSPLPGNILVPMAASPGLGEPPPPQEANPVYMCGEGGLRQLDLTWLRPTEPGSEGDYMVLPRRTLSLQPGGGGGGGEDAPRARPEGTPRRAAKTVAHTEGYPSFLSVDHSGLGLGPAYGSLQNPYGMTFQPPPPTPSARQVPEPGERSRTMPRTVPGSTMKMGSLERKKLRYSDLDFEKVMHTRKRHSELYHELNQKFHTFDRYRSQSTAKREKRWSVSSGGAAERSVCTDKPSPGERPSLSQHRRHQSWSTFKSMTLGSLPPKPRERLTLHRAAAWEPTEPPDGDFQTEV
Procedure: Changes in the intracellular calcium (Ca^2+) concentration induced by CCK-8S (SEQ ID NO: 14), CCK-8NS, or CCK-4 were measured using the cell strains expressing ph01207 prepared in Example 2. The cell strains prepared in Example 2 were eight strains that expressed the protein encoded by ph01207 as FLAG-tag fusion proteins and four strains that expressed the protein encoded by ph01207 as HA-tag fusion proteins. Of these, the HA-ph01207#10-6 cell strain, a strain obtained by cloning one of the cell strains that stably expressed the protein encoded by ph01207 as HA-tag fusion proteins, was used in this example. CCK-8NS was a CCK octapeptide having the same amino acid sequence as that of CCK-8S (SEQ ID NO: 14), but a region from the C terminus to the seventh tyrosine residue was not sulfated. CCK-4 was a tetrapeptide comprising residues from the C terminus to the fourth amino acid of CCK-8S (SEQ ID NO: 14).
The specific method for measuring changes in the intracellular Ca^2+ concentration in the HA-ph01207#10-6 cell strain induced by CCK-8S (SEQ ID NO: 14) and the results are described below. The HA-ph01207#10-6 cell strain was seeded on a 96-well plate (a plate with a black wall and a transparent bottom) at a cell count of 2×10^4/100 μL medium/well and cultured at 37° C. in the presence of 5% CO2. As a medium, DMEM/F12 (Gibco) containing 10% fetal calf serum (Moregate) was used. On the following day, 50 μL of the medium was removed from each well, 50 μL of a loading buffer was added to each well, and the mixture was reacted at room temperature for 1.5 h, so that a fluorescent dye contained in the loading buffer should be taken up into the cell. The loading buffer was prepared by dissolving component A of the FLIPR Calcium 3 Assay Kit (Molecular Device) in a solution obtained by adding 0.1 mL of 500 mM probenecid (Sigma) to 9.9 mL of component B. After reaction, changes over time in the fluorescence intensity in each well after addition of CCK-8S (Peptide Institute, Inc.) were measured using the FLEX station (Molecular Device). Furthermore, similar measurement was performed for CCK-8NS (Peptide Institute, Inc.) and CCK-4 (Peptide Institute, Inc.). 0.52 mg of CCK-8S (SEQ ID NO: 14) was dissolved in 4.5 mL of 1% NaHCO3 (Wako) to prepare a solution having 0.1 mM concentration. 0.53 mg of CCK-8NS was dissolved in 0.50 mL of dimethyl sulfoxide (DMSO, Sigma), and then 4.50 mL of redistilled water H2O was added to prepare a solution having 0.1 mM concentration. 0.54 mg of CCK-4 was dissolved in 0.46 mL of DMSO, 4.09 mL of redistilled water was added to prepare a solution having 0.2 mM concentration. […]

CHO-K1 cell strain = assay: Changes in intracellular Ca2+ concentration in CHO-K1 host cell not transfected (negative control); assay type: cell-based, Chinese hamster; details: CHO-K1 not transfected; peptide 1 nM (Example 5)
Procedure: The specific method for measuring changes in the intracellular Ca^2+ concentration in the HA-ph01207#10-6 cell strain induced by CCK-8S (SEQ ID NO: 14) and the results are described below. The HA-ph01207#10-6 cell strain was seeded on a 96-well plate (a plate with a black wall and a transparent bottom) at a cell count of 2×10^4/100 μL medium/well and cultured at 37° C. in the presence of 5% CO2. As a medium, DMEM/F12 (Gibco) containing 10% fetal calf serum (Moregate) was used. On the following day, 50 μL of the medium was removed from each well, 50 μL of a loading buffer was added to each well, and the mixture was reacted at room temperature for 1.5 h, so that a fluorescent dye contained in the loading buffer should be taken up into the cell. The loading buffer was prepared by dissolving component A of the FLIPR Calcium 3 Assay Kit (Molecular Device) in a solution obtained by adding 0.1 mL of 500 mM probenecid (Sigma) to 9.9 mL of component B. After reaction, changes over time in the fluorescence intensity in each well after addition of CCK-8S (Peptide Institute, Inc.) were measured using the FLEX station (Molecular Device). Furthermore, similar measurement was performed for CCK-8NS (Peptide Institute, Inc.) and CCK-4 (Peptide Institute, Inc.). 0.52 mg of CCK-8S (SEQ ID NO: 14) was dissolved in 4.5 mL of 1% NaHCO3 (Wako) to prepare a solution having 0.1 mM concentration. 0.53 mg of CCK-8NS was dissolved in 0.50 mL of dimethyl sulfoxide (DMSO, Sigma), and then 4.50 mL of redistilled water H2O was added to prepare a solution having 0.1 mM concentration. 0.54 mg of CCK-4 was dissolved in 0.46 mL of DMSO, 4.09 mL of redistilled water was added to prepare a solution having 0.2 mM concentration. CCK-8S (SEQ ID NO: 14), CCK-8NS, and CCK-4 were diluted in phosphate-buffered physiological saline (PBS) to prepare 5 nM solutions, and 25 μL each was added (final concentration 1 nM) to perform measurement. As a positive control for including an increase in the intracellular Ca^2+ concentration, A23187 (Calbiochem) was used at a final concentration of 10 μM. As a negative control, the CHO-K1 cell strain used to prepare the HA-ph01207#10-6 cell strain as a host was used. Since the CHO-K1 cell strain was not transfected with the ph01207-expressing vector, the ph01207 gene product was not expressed.
Changes in the intracellular calcium (Ca^2+) concentration induced by CCK-8S were measured by a method similar to the method described in Example 5 using the 7tmHR stably-expressing strain and the hk01941 stably-expressing strain prepared in Example 7. As a control, a host cell not transfected with the 7tmHR-expressing vector or the hk01941-expressing vector was also used.
Cells were seeded in a 96-well plate (a plate with a black wall and a transparent bottom) at a cell count of 3×10^4/100 μL of medium/well and cultured overnight at 37° C. in a 5% CO2 incubator. On the following day, 50 μL of the medium was removed from each well, […] of a loading buffer was added to each well, and the mixture was reacted at room temperature for 1 h, so that a fluorescent dye contained in the loading buffer was taken up into the cell. The loading buffer was prepared by a method similar to the method described in Example 5. After reaction, changes over time in the fluorescence intensity in each well after addition of CCK-8S were measured using the FLEX station (Molecular Device). CCK-8S was used at a final concentration of 10 pM to 1 μM. Furthermore, as a positive control of the assay, A23187 was used at a final concentration of 20 μM.
Cells were seeded in a 96-well plate (a plate with a black wall and a transparent bottom) at a cell count of 3×10^4/100 μL of medium/well and cultured overnight at 37° C. in a 5% CO2 incubator. […]

Substance	Change in intracellular Ca2+ concentration (fluorescence intensity) [1]	Change in intracellular Ca2+ concentration (fluorescence intensity) (CHO-K1 cell strain)
CCK-4: tetrapeptide comprising residues from the C terminus to the fourth amino acid of CCK-8S	did not increase	not increased
CCK-8 nonsulfated form [CCK-8NS]	did not increase	not increased
